Data on 2 molecules can be found in paper PMC4982076, “lin28 proteins promote expression of 17∼92 family miRNAs during amphibian development”.

The target of data set [1] is T1, Xrt-lin28a (Xenopus tropicalis, UniProt Q5EB47 34-177).
T1 sequence: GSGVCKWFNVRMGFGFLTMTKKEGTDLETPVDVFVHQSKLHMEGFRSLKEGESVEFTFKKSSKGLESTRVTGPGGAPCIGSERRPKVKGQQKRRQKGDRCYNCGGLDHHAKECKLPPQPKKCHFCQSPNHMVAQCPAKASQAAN
Briefly: EMSA. The note with it: Bmax 1.017; n=3; 60 mM KCl, 10 mM HEPES pH 7.6, 3 mM MgCl2, 5% glycerol, 1 mM DTT, 5 ug/ul heparin, 150 ng yeast total RNA; 30 min room temperature; 10% native PAGE. Background: A gel shift assay detects complexes by their altered migration in electrophoresis.

For data set [2], the target named is T1, Xrt-lin28a. Briefly: EMSA; Bmax 0.962; n=3; 60 mM KCl, 10 mM HEPES pH 7.6, 3 mM MgCl2, 5% glycerol, 1 mM DTT, 5 ug/ul heparin, 150 ng yeast total RNA; 30 min room temperature; 10% native PAGE. The note with it: protein: recombinant.

The term Kd denotes the constant that tells how readily two partners part at equilibrium. Turning to L-let-7g, the Kd with Xrt-lin28a [1] amounted to 314 nM.
As for UGCAAUUUUAUUUAGUUUGGUAGGAGAAAAAUUGC (structured_RNA) [L-mir-363], in the data set with Xrt-lin28a [2], the Kd is 448 nM.
